# Source: the supplement of paper PMC11865577
# Experiments:
# Test in all cases: pull-down binding Z-score (relative to library population); higher = stronger binding
# [1] = system: TO-N3-2 (biotin conjugate); conditions: RNA library: Library-2
# Procedure, shortened: (§1)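 Streptavidin beads with 100 pmol of biotin-conjugated small molecule were incubated for 60 min at 25 °C with 1 μg of heat-folded Cy5- or Cy3-end-labelled RNA library in phosphate/NaCl/KCl buffer. Bound RNA was eluted in hot SDS after three washes and hybridised to a DNA barcode microarray at 55.5 °C for 20 h. Each binding score is a library-referenced Z-score, computed after beads-only subtraction and a trimmed mean of barcoded replicate probes.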
# [2] = system: TO-N3 (biotin conjugate); conditions: RNA library: Library-2
# Procedure, shortened: as §1
# [3] = system: TO-3-N3 (biotin conjugate); conditions: RNA library: Library-2
# Procedure, shortened: as §1
# [4] = system: TO-3-N3-2 (biotin conjugate); conditions: RNA library: Library-2
# Procedure, shortened: as §1
# [5] = system: G-clamp-N3 (biotin conjugate); conditions: RNA library: Library-1 (pre-miRNA loops + repeats)
# Procedure, shortened: as §1
Sequence,pull-down binding Z-score [1],pull-down binding Z-score [2],pull-down binding Z-score [3],pull-down binding Z-score [4],pull-down binding Z-score [5]
AGCUUCUACGUCAUUCAGCACUUGCU [hsa-mir-5706],-0.31,-0.601,-0.62,-0.211,-0.819
AGCUUCUUUAUAAGAAGAGGAAACU [hsa-mir-3923],-0.5,-0.151,0.147,0.00803,-0.169
AGCUUUAUGUAUUCUGAAGUUAUUGAAAAUAAGAGCU [hsa-mir-3140],-0.911,-1.1,-0.877,-0.254,-0.628
AGGACACAGGCUGGCACUGAGGUCCC [hsa-mir-6887],1.41,0.639,0.0768,-0.0807,-0.394
AGGACGGUGCGCCUUGUUUCCC [hsa-mir-3132],0.529,0.0408,-0.376,-0.0152,-1.1
AGGAGAAGGUGAGACCAAUGUCCUGGGUGCCACUCCU [hsa-mir-6124],-0.139,-0.503,-0.524,-0.00463,0.515
AGGAGGGUCC [hsa-mir-3141],1.02,0.766,0.419,0.356,-0.0548
AGGAGUUCACU [hsa-mir-1183],0.0749,-0.253,-0.276,-0.383,-0.952
AGGCAACAUGGCCGAGAGGCCGGGGCCU [hsa-mir-564],0.551,-0.12,-0.144,-0.533,2.93
AGGCACAUAUGUGAACAUUGUACCA [hsa-mir-5707],-0.108,0.0876,0.023,0.00393,-0.48
AGGCAUGGGUGGCU [hsa-mir-8085],0.625,0.428,0.237,0.062,0.379
AGGCAUUAGGAUCCUUAUUCUUGCCU [hsa-mir-4788],-0.364,-0.559,-0.238,-0.442,-0.175
AGGCCAUACGUGUUGGAGAUU [hsa-mir-4461],0.79,0.792,0.627,0.301,0.253
AGGCCGACGAGCAGCGCAUCCUCUUACCCGGCUA [hsa-mir-138-2],1.95,1.11,0.181,0.171,-1.48
AGGCCGUUGCCAAUCAGAGAACGGCUA [hsa-mir-138-1],1.43,1.47,1.23,0.52,-0.677
AGGCCUGAGUCUCUCUGCUGCAGAUGGGCUC [hsa-mir-422a],1.29,0.668,-0.112,-0.0262,-0.38
AGGCUCUGCAAGAUCAACCGAGCA [hsa-mir-330],0.739,0.492,0.196,0.141,-0.474
AGGCUCUGGGUCCGGCUUACUCCCUAGCUUACUGUCCUCAGAACCC [hsa-mir-6071],0.924,0.311,-0.173,0.226,-0.386
AGGCUGGUCUCAAACUCCU [hsa-mir-5096],0.128,-0.0712,-0.118,-0.228,-0.82

Sequence,pull-down binding Z-score [1],pull-down binding Z-score [2],pull-down binding Z-score [3],pull-down binding Z-score [4],pull-down binding Z-score [5]
AGGCUGUCUUCAUUCCCUCUUGACCACCC [hsa-mir-6795],0.709,1.29,1.19,0.213,-1.03
AGGCUUGGCACUUGAGGGAAAGCCU [hsa-mir-8059],0.469,0.646,0.451,0.0114,2.67
AGGGACCCCCGGAGUCUGUCACGGUCUCA [hsa-mir-6784],0.955,0.353,-0.0169,0.215,-0.402
AGGGCAAGUCCAAAGGUAUACAGUUGGUCUGUUCA [hsa-mir-7107],0.381,-0.107,-0.459,-0.208,1.04
AGGGCAGCUCCCAUGACUGCCUGACCGC [hsa-mir-6880],1.4,0.663,0.15,0.266,-0.549
AGGGCAGGGGUGUGGCU [hsa-mir-4751],1.93,2.8,3.21,2.67,0.725
AGGGCCUUCUGAGCCCAGGUCCG [hsa-mir-6716],1.46,0.886,0.611,0.018,0.286
AGGGCUGGGAUUACUAAAGCCCU [hsa-mir-1266],-0.335,-0.158,-0.0287,-0.105,1.24
AGGGGACACGGGCAAAGACUUGGGGGUUCCUGGGACCCUCAGACGUGUGUCCUCU [hsa-mir-877],0.581,0.632,0.252,0.297,0.447
AGGGGUCAUAUCUCUUCUCAGGGAAAGCAGGAGCCCUUCAGCAGGGUCAGGGCCCCU [hsa-mir-6891],0.317,0.761,0.705,0.263,1.5
AGGGUGGAGCCCACUGUGGCUCCUGACUCAGCCCU [hsa-mir-6893],0.419,-0.0778,-0.0543,0.0411,-0.967
AGGUAGUGAUAUGUGCAUCUACU [hsa-mir-17],0.759,0.31,0.0812,0.142,-0.805
AGGUAGUGUGAUUACCCAACCUACU [hsa-mir-93],0.272,0.0315,-0.148,-0.179,0.373
AGGUAGUGUUUAGUUAUCUACU [hsa-mir-20a],-0.218,-0.285,-0.264,0.257,1.28
AGGUCUCCUGGCAU [hsa-mir-4256],-0.096,-0.164,-0.274,-0.439,-0.698
AGGUGCUAGGUCGGCCUCGGC [hsa-mir-5787],1.47,1.01,0.284,0.351,1.28
AGGUGGAAAGGGAGCAGGAGCAUCGUCUUUAAGAGGGUCAGGUACCUUUGCUCUUA [hsa-mir-6083],1.33,0.724,-0.0151,0.394,0.244
AGGUUCUGCUGGCUGAGAACCU [hsa-mir-3667],0.149,-0.17,-0.215,-0.106,2.19
